Source: the Immune Epitope Database (IEDB)

Columns and labels:
HLA-A*30:01 = test: IEDB peptide-MHC binding, purified MHC/competitive/radioactivity; filed as Kd, often an IC50 or EC50 that approximates it; ≥ and ≤ were set here for values at or beyond the usual limits of such assays
HLA-A*29:02 = test: as above
HLA-A*30:02 = test: as above
HLA-A*26:01 = test: as above
HLA-A*01:01 = test: as above
HLA-A*32:01 = test: as above
HLA-A*68:02 = test: as above
HLA-B*15:01 = test: IEDB peptide-MHC binding, purified MHC/direct/fluorescence; filed as Kd, often an IC50 or EC50 that approximates it; ≥ and ≤ were set here for values at or beyond the usual limits of such assays; conditions: source organism: Homo sapiens
HLA-B*07:02 = test: as above; conditions: source organism: Homo sapiens
HLA-B*51:01 = test: IEDB peptide-MHC binding, purified MHC/competitive/radioactivity; filed as Kd, often an IC50 or EC50 that approximates it; ≥ and ≤ were set here for values at or beyond the usual limits of such assays
HLA-B*57:01 = test: IEDB peptide-MHC binding, purified MHC/direct/fluorescence; filed as Kd, often an IC50 or EC50 that approximates it; ≥ and ≤ were set here for values at or beyond the usual limits of such assays
HLA-B*58:01 = test: as above
HLA-A*02:03 = test: IEDB peptide-MHC binding, purified MHC/competitive/radioactivity; filed as Kd, often an IC50 or EC50 that approximates it; ≥ and ≤ were set here for values at or beyond the usual limits of such assays
HLA-A*02:06 = test: as above
HLA-A*02:02 = test: as above
HLA-B*53:01 = test: as above
HLA-A*24:02 = test: as above; conditions: source organism: Mammarenavirus guanaritoense
HLA-A*23:01 = test: as above; conditions: source organism: Mammarenavirus guanaritoense
HLA-A*03:01 = test: as above; conditions: source organism: Vaccinia virus WR
HLA-A*31:01 = test: as above; conditions: source organism: Vaccinia virus WR
HLA-A*11:01 = test: as above; conditions: source organism: Vaccinia virus WR
HLA-A*33:01 = test: as above; conditions: source organism: Vaccinia virus WR
HLA-A*68:01 = test: as above; conditions: source organism: Vaccinia virus WR
HLA-B*08:01 = test: IEDB peptide-MHC binding, purified MHC/direct/fluorescence; filed as Kd, often an IC50 or EC50 that approximates it; ≥ and ≤ were set here for values at or beyond the usual limits of such assays; conditions: source organism: Coxiella burnetii Q321
[1] = source organism: Vaccinia virus WR
[2] = source organism: Mammarenavirus brazilense
[3] = source organism: Dengue virus 3 Martinique/1243/1999
[4] = source organism: Dengue virus 1 Brazil/97-11/1997
[5] = source organism: Dengue virus 4 Philippines/H241/1956
[6] = source organism: Dengue virus 2 Peru/IQT2913/1996
[7] = source organism: Toxoplasma gondii
[8] = source organism: Trypanosoma cruzi
[9] = source organism: Vaccinia virus Copenhagen
[10] = source organism: Dengue virus 2 Jamaica/1409/1983
[11] = source organism: Lassa virus Josiah
[12] = source organism: Brucella abortus 2308
[13] = source organism: Mammarenavirus guanaritoense
[14] = source organism: Dengue virus 4 Dominica/814669/1981
[15] = source organism: Lymphocytic choriomeningitis virus (strain Armstrong) (clone 53b)
[16] = source organism: Mammarenavirus lassaense

NARLMRALK
Kd (HLA-A*30:01; [1]): 2.22 nM

YNISRKIVY
Kd (HLA-A*29:02; [2]): 2350 nM
Kd (HLA-A*30:02; [2]): 3410 nM
Kd (HLA-A*26:01; [2]): 2890 nM
Kd (HLA-A*01:01; [2]): 1080 nM
Kd (HLA-A*32:01; [2]): ≥ 36200 nM
Kd (HLA-A*30:01; [2]): 6600 nM

KGFYASPSV
Kd (HLA-A*30:01; [1]): 2.68 nM

ETYQLWTALI
Kd (HLA-A*26:01; [3]): 114 nM
Kd (HLA-A*68:02; [3]): 2.28 nM

NLQKESRACL
Kd (HLA-A*68:02; source organism: Homo sapiens): 19700 nM

LPHQPLATY
Kd (HLA-B*15:01): 2350 nM
Kd (HLA-B*07:02): 5980 nM

EPPFGESYI
Kd (HLA-B*51:01; [4]): 13800 nM

RQLQKIERW
Kd (HLA-B*57:01; source organism: Yellow fever virus): 405 nM

RAILGCAQA
Kd (HLA-A*30:01; [1]): 2370 nM

TVFFVLMML
Kd (HLA-A*68:02; [5]): 36 nM

KNRLNALGK
Kd (HLA-A*30:01; [6]): 142 nM

ELRRQVDQL
Kd (HLA-A*68:02; source organism: Homo sapiens): 1210 nM

VTPSMTMRCV
Kd (HLA-A*68:02; [3]): 193 nM

KTKTDFGFY
Kd (HLA-A*30:02; [5]): 1.56 nM
Kd (HLA-A*01:01; [5]): 6280 nM
Kd (HLA-A*30:01; [5]): 2.89 nM

KVVRVQRPAK
Kd (HLA-A*30:01; [4]): 6.11 nM

KTSGRGSCM
Kd (HLA-B*58:01; [7]): 6000 nM
Kd (HLA-B*57:01; [7]): ≥ 20000 nM

FSGKGPLRMV
Kd (HLA-B*51:01; [5]): ≥ 38000 nM

GLLPSLLLLL
Kd (HLA-A*02:03; [8]): 1.83 nM
Kd (HLA-A*02:06; [8]): 7.28 nM
Kd (HLA-A*68:02; [8]): ≥ 33000 nM
Kd (HLA-A*02:02; [8]): 3.06 nM

RFRTVLISK
Kd (HLA-A*30:01; [9]): 4.59 nM

TTTESRCPTQ
Kd (HLA-A*30:01; [10]): ≥ 28700 nM

SSVNVSLTAI
Kd (HLA-A*68:02; [10]): 184 nM

LLGLWGLATA
Kd (HLA-A*02:03; [8]): 1.39 nM
Kd (HLA-A*02:06; [8]): 57.9 nM
Kd (HLA-A*68:02; [8]): 407 nM
Kd (HLA-A*02:02; [8]): 1.69 nM

CTILAVVSV
Kd (HLA-A*68:02; source organism: Dengue virus 2 16681-PDK53): 54.1 nM

LPVWLAYKV
Kd (HLA-B*51:01; [6]): 515 nM
Kd (HLA-B*53:01; [6]): 157 nM

LIALSVLAV
Kd (HLA-A*02:03; [11]): 2.63 nM
Kd (HLA-A*02:06; [11]): 336 nM
Kd (HLA-A*68:02; [11]): 323 nM
Kd (HLA-A*02:02; [11]): 117 nM

FVNYNFTLV
Kd (HLA-A*02:03; [8]): 0.759 nM
Kd (HLA-A*02:06; [8]): 0.0031 nM
Kd (HLA-A*68:02; [8]): 0.336 nM
Kd (HLA-A*02:02; [8]): 10.4 nM

VSRLEHQMW
Kd (HLA-B*57:01; source organism: West Nile virus): 90.5 nM

VARGARFFL
Kd (HLA-B*58:01; [12]): ≥ 20000 nM
Kd (HLA-B*57:01; [12]): 509 nM

MTAGIFLFFM
Kd (HLA-A*26:01; [5]): 15.9 nM
Kd (HLA-A*68:02; [5]): 10.4 nM

KLEGDSTDL
Kd (HLA-A*68:02; source organism: Homo sapiens): 2050 nM

GEKSRCYSLY
Kd (HLA-A*29:02; [13]): ≥ 10000 nM
Kd (HLA-A*30:02; [13]): 751 nM
Kd (HLA-A*24:02): ≥ 70300 nM
Kd (HLA-A*23:01): ≥ 44600 nM
Kd (HLA-A*26:01; [13]): ≥ 69700 nM
Kd (HLA-A*01:01; [13]): ≥ 42300 nM
Kd (HLA-A*32:01; [13]): ≥ 69900 nM
Kd (HLA-A*30:01; [13]): 6850 nM

KSKQLKSFL
Kd (HLA-A*30:01; [1]): 13.2 nM

TTKDYFSFK
Kd (HLA-A*03:01): 18.1 nM
Kd (HLA-A*31:01): 1.33 nM
Kd (HLA-A*11:01): 0.861 nM
Kd (HLA-A*33:01): 17.6 nM
Kd (HLA-A*68:01): 1.07 nM
Kd (HLA-A*30:01; [1]): 1.23 nM

EPEVANLDI
Kd (HLA-B*51:01; [4]): ≥ 44500 nM
Kd (HLA-B*53:01; [4]): 7230 nM

HTHLSNQNL
Kd (HLA-A*30:01; [1]): 5.78 nM

LAGVSLLPV
Kd (HLA-B*51:01; [3]): 1910 nM

LLEGEEERL
Kd (HLA-A*02:06; source organism: Homo sapiens): ≥ 20500 nM
Kd (HLA-A*68:02; source organism: Homo sapiens): ≥ 136000 nM

GVVTRSGAYV
Kd (HLA-A*68:02; [10]): 333 nM

MSPGYVLGV
Kd (HLA-A*68:02; [14]): 99.6 nM

SLNQTVHSL
Kd (HLA-A*02:03; [15]): 2.4 nM
Kd (HLA-A*02:06; [15]): ≥ 28100 nM
Kd (HLA-A*68:02; [15]): 16100 nM
Kd (HLA-A*02:02; [15]): 1.9 nM

PLNDNIATLL
Kd (HLA-A*68:02; source organism: Homo sapiens): 7440 nM

ATFTVNIFK
Kd (HLA-A*30:01; [1]): 3.13 nM

RTKPASAPI
Kd (HLA-A*30:01; [1]): 0.114 nM

CARISSRES
Kd (HLA-A*30:01; [9]): 586 nM

EVLTLATGPI
Kd (HLA-A*26:01; [14]): 10400 nM
Kd (HLA-A*68:02; [14]): 100 nM

YLRRRIGMI
Kd (HLA-B*08:01): 6 nM

RTRYDTFKV
Kd (HLA-A*30:01; [1]): 0.197 nM

KVYIGYCMA
Kd (HLA-A*30:01; [1]): 2.6 nM

AVSFSSPIS
Kd (HLA-A*30:01; [1]): 1310 nM

FTMTHRRPTI
Kd (HLA-B*51:01; [3]): ≥ 20400 nM
Kd (HLA-A*02:06; [3]): 647 nM
Kd (HLA-A*68:02; [3]): 114 nM

ASPILRFLY
Kd (HLA-A*29:02; [16]): 91.7 nM
Kd (HLA-A*30:02; [16]): 97.4 nM
Kd (HLA-A*26:01; [16]): 9660 nM
Kd (HLA-A*01:01; [16]): 331 nM
Kd (HLA-A*32:01; [16]): 1100 nM
Kd (HLA-A*30:01; [16]): ≥ 78100 nM

AVKDVTITK
Kd (HLA-A*30:01; [1]): 2.16 nM

YSDPKRFFL
Kd (HLA-A*29:02; [13]): ≥ 21300 nM
Kd (HLA-A*30:02; [13]): 85.9 nM
Kd (HLA-A*26:01; [13]): ≥ 77900 nM
Kd (HLA-A*01:01; [13]): 7.32 nM
Kd (HLA-A*32:01; [13]): ≥ 77800 nM
Kd (HLA-A*30:01; [13]): 6160 nM

WPLSKMDIGV
Kd (HLA-B*51:01; [6]): 2670 nM

EAIMAVGMV
Kd (HLA-A*26:01; [10]): 43.9 nM
Kd (HLA-A*68:02; [10]): 1.79 nM
